Results on five substances are retold here after paper PMC2824085.

Assay [1] addresses trimeric extracellular domain (ECD) of rat macrophage galactose lectin (MGL) (rat) (UniProt P49301). The assay can be described thus: radioligand binding; competition: CRD or ECD of MGL coated on polystyrene wells, 125I-labeled Gal-BSA as reporter ligand, competing ligand titrated; KI = concentration for 50% inhibition.
In assay [2] the target is monomeric carbohydrate-recognition domain (CRD) of rat macrophage galactose lectin (MGL) (rat) (UniProt P49301). Described as above.
In assay [3] the target is Man9GlcNAc2 glycopeptide isolated from soybean agglutinin (soybean). The assay can be described thus: SPR; BiaCore 3000, CM5 chip; SBA or its glycopeptide amine-coupled, monomeric CRD of DC-SIGN flowed over; steady state, simple saturation model with linear background; 10 mM Hepes, 150 mM NaCl, 5 mM CaCl2, 0.005% P20, pH 7.4, 25 °C.
Assay [4] deals with monomeric carbohydrate-recognition domain (CRD) from DC-SIGN (UniProt Q9NNX6). The assay can be described thus: SPR; BiaCore 3000, CM5 chip; CRD of DC-SIGN immobilised, glycopeptide from SBA in the fluid phase; steady state; 10 mM Hepes, 150 mM NaCl, 5 mM CaCl2, 0.005% P20, pH 7.4, 25 °C.
Assay [5] shares this target. Description: radioligand binding; competition: CRD of DC-SIGN immobilised on polystyrene wells, 125I-labeled mannose-BSA as reporter ligand, competing ligand titrated; KI = concentration for 50% inhibition.

Sequence of monomeric carbohydrate-recognition domain (CRD) of rat macrophage galactose lectin (MGL) (rat) (P49301 165-306): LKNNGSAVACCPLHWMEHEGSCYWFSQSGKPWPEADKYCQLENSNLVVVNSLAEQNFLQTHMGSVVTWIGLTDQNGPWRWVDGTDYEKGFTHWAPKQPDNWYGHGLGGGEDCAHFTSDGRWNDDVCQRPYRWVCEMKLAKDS
Sequence of trimeric extracellular domain (ECD) of rat macrophage galactose lectin (MGL) (rat) (P49301 59-306, tags left off): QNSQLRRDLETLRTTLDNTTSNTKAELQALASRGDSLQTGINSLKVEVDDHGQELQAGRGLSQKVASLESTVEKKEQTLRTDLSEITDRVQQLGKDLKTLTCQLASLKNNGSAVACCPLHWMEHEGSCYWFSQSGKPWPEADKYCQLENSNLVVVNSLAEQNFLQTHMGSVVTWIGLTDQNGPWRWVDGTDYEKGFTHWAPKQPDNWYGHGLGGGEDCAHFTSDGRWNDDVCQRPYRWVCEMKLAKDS
Sequence of monomeric carbohydrate-recognition domain (CRD) from DC-SIGN (Q9NNX6 250-404): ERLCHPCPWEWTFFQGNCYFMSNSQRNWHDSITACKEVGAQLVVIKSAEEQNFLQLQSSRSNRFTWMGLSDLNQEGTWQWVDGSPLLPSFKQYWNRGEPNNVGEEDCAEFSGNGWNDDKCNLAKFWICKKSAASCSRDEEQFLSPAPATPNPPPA

With “desialylated tri-antennary glycopeptide isolated from fetuin”, the Ki in assay [1] was found to be 160 µM; in assay [2], 260 µM. In assay [3], “monomeric carbohydrate-recognition domain (CRD) from DC-SIGN (from UniProt Q9NNX6 250-404) (domain or fragment)” yielded a fold lower affinity than for intact SBA of 15 fold. For the substance “asialo-orosomucoid OR-5 (five glycosylation sites, expressed in Chinese hamster ovary cells) (from UniProt P02763 19-201) (natural protein)”, the figures for the inhibition constant (Ki) in assay [1] and in assay [2] were 0.65 µM and 1.4 µM, respectively. As to “asialo-orosomucoid derived from human blood (from UniProt P02763 19-201) (natural protein)”, the values for the Ki in assay [1] and in assay [2] were 0.18 µM and 0.12 µM, respectively. As to “Man9GlcNAc2 glycopeptide isolated from soybean agglutinin”, the Kd in assay [4] was found to be 76 µM. The Ki in assay [5] amounted to 68 µM.
